Source: the supplement of paper PMC10567573

B1: PCDHGA10 (parent)
chain: FGIEIEVTDINDNAPKFQAENLDV

Variants of: B1
Assay: protein stability index of a GFP-peptide fusion (GPS, HEK-293T) (PSI 1-6); higher = more stable
Settings: c terminus: a fixed tail appended
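Also: lentivirally expressed fusions sorted by FACS into six bins by GFP to DsRed ratio, PSI derived from sequencing read proportions per bin multiplied by bin number.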

Protein stability index, by site and new letter:
L22: D 4.21; C 3.27; A 3.34
N13: R 2.67; H 2.36; F 1.84; L 1.91; M 2.08; E 3.35; W 1.54; V 2.27; K 3.12; S 2.48; T 3.1; G 2.99; I 2.66; C 2.52; P 2.83; Q 3.21; A 2.85; D 3.43; Y 1.78
I10: Y 2.81; W 2.03; V 3.24; E 4.23; M 3.28; Q 4.05; A 3.61; D 4.78; N 4.14; C 3.4; S 3.91; P 3.83; K 4.61; F 2.4; H 4.04; L 2.63; G 3.67; T 3.28; R 3.73
N21: C 2.47; E 3.46; T 2.89; S 2.54; G 2.83; R 2.07; M 2.42; H 2.82; Y 1.73; P 2.6; K 3.25; Q 2.8; A 2.49; W 1.37; L 2.13; F 1.84; V 2.33; D 3.65; I 1.84
I5: H 4.91; A 4.42; S 5.39; V 3.48; F 3.49; D 4.58; Y 3.85; T 5.08; Q 4.71; K 4.92; M 3.86; G 5.02; L 3.94; P 5.13; N 5.05; E 5.17; W 3.05; R 4.79; C 4.28
A19: V 2.37; R 3; H 3.18; M 2.53; F 2.42; Q 3.32; G 3.51; K 3.37; N 2.82; I 2.26; C 2.59; T 2.84; E 3.83; P 2.6; D 3.56; Y 1.95; W 1.59; S 2.62; L 2
D12: E 3.13; Q 2.71; H 2.16; A 2.28; R 2.48; F 1.94; C 1.8; I 1.84; Y 1.56; G 2.58; M 1.75; S 2.25; P 2.42; T 1.99; L 1.49; N 2.15; K 2.98; V 2.05; W 1.6
A14: R 2.83; I 2.49; L 1.98; M 2.42; N 3.35; V 3.4; H 2.79; W 1.67; P 2.69; G 3.08; E 3.83; K 3.1; Q 3.58; Y 1.71; D 3.89; S 3.13; T 2.9; C 2.46; F 2.35
V7: T 4.45; C 3.75; D 5.46; I 2.29; S 4.63; L 2.45; N 4.46; F 2.25; H 4.74; A 4.33; R 4.14; K 4.21; M 3.18; Y 2.93; P 4.72; E 4.74; W 1.78; G 4.3; Q 4.8
K16: D 3.46; P 3.31; T 2.91; M 3.07; L 2.31; E 3.88; G 3.56; I 2.48; A 2.53; Q 3.35; F 2.21; S 2.52; R 3.02; W 1.72; Y 2.18; H 2.76; V 2.64; N 2.94; C 2.45
P15: A 3.37; W 2.05; E 3.24; F 1.84; R 3.36; H 2.73; C 2.5; T 3.41; G 3.52; V 2.55; D 3.62; M 2.66; K 3.51; Y 2.23; Q 3.11; L 2.41; I 2.25; N 3.6; S 3.14
F17: S 3.98; H 4.28; C 3.73; P 4.03; W 2.52; D 4.36; G 3.94; Q 4.14; K 4.42; E 4.81; Y 3.18; L 3.33; V 3.65; T 4.14; N 4.15; A 4.12; R 3.9; I 3.37; M 3.58
D9: K 2.45; M 1.96; E 2.69; F 2.69; C 1.95; R 2.04; I 1.32; Y 3.18; P 2.53; N 2.73; G 2.15; A 1.98; H 1.81; S 1.85; V 2.58; Q 2.15; T 1.96
T8: R 2.32; P 3.75; S 2.77; W 2.27; F 1.68; M 2.19; Y 1.17; K 3.33; H 2.78; A 2.88; C 2.48; Q 2.78; N 3.81; D 3.79; I 1.76; E 3.32; G 3.27; L 1.89; V 2.08
N11: V 2.3; W 1.96; Q 2.52; L 1.77; S 2.84; Y 1.76; F 1.33; P 2.73; I 2.04; D 3.54; R 2.73; C 2.28; K 2.99; E 2.94; T 2.26; M 2.15; G 2.66; A 2.88; H 2.41
Q18: W 1.93; I 2.13; K 3; F 1.68; S 2.1; T 2.77; E 3.33; M 2.13; G 2.94; R 2.08; H 2.93; L 2.26; V 2.54; A 2.88; D 3.56; N 3.25; Y 1.53; P 2.41; C 2.44
E20: W 2.11; R 1.83; V 1.91; F 2.51; G 2.11; S 2.71; I 2.72; T 2.34; Q 2.4; P 2.13; M 2.06; H 2.02; A 2.15; D 2.82; N 2.27; L 1.33; K 2.08; Y 2.59; C 1.61
E4: P 4.33; S 2.5; M 1.73; V 2.24; Q 2.47; W 2.5; R 2.18; T 2.12; N 3.34; Y 1.73
E6: R 1.7; A 3.25; N 3.02; T 1.98; I 2.05; M 1.41; F 2.43; L 1.86; W 2.9; V 2.04; H 2.19; S 2.69; P 4.08; D 3.62; Q 2.39; C 1.58; G 3.56; K 2.77; Y 2.23
